Measured values reported in patent publication US20210346432A1 (Memorial Sloan Kettering, published 2021).

T1: A647 conjugated BCMA-Fc fusion protein (human, UniProt Q02223 1-54, A647 conjugated (site not stated))
T1 construct: Staining reagent for CAR on T cells; not shown: Fc part
T1 sequence: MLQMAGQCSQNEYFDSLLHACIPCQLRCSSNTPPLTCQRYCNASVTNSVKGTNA

T2: mouse BCMA (mouse, UniProt O88472 1-49, limits assumed)
T2 chain (looked up): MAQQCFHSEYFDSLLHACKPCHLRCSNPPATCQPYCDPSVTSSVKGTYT

B1: BCMA-targeted 28z CAR24 (other)
chain: SYELTQPPSASGTPGQRVTMSCSGTSSNIGSHSVNWYQQLPGTAPKLLIYTNNQRPSGVPDRFSGSKSGTSASLAISGLQSEDEADYYCAAWDGSLNGLVFGGGTKLTVLGSRGGGGSGGGGSGGGGSLEMAEVQLVQSGAEVKKPGESLKISCKGSGYSFTSYWIGWVRQMPGKGLEWMGIIYPGDSDTRYSPSFQGHVTISADKSISTAYLQWSSLKASDTAMYYCARYSGSFDNWGQGTLVTVSSIEVMYPPPYLDNEKSNGTIIHVKGKHLCPSPLFPGPSKPFWVLVVVGGVLACYSLLVTVAFIIFWVRSKRSRLLHSDYMNMTPRRPGPTRKHYQPYAPPRDFAAYRSRVKFSRSADAPAYQQGQNQLYNELNLGRREEYDVLDKRRGRDPEMGGKPRRKNPQEGLYNELQKDKMAEAYSEIGMKGERRRGKGHDGLYQGLSTATKDTYDALHMQALPPR
notes: Chimeric antigen receptor on transduced human T cells; leader left out; also called BCMA-specific 28z CAR24
B2: ET140-207 (scFv)
scFv: QPVLTQPPSASASLGASVTLTCTLSSGYSNYKVDWYQQRPGKGPRFLMRVDTGGIVGSKGDGIPDRFSVSGSGLNRYLTIKNIQEEDESDYHCGADHGSGSNFVWVFGGGTKLTVLGSRGGGGSGGGGSGGGGSLEMAQVQLVQSGAEVKKPGSSVKVSCKASGGTFSSYAISWVRQAPGQGLEWMGGIIPIFSTANYAQKFQGRVTMTTDTSTSTAYMELRSLRSDDTAVYYCARQPWTWYSPYDQWGQGTLVTVSS
notes: also called ET140-207 scFv; ET140-57 scFv
B3: ET140-188 (scFv)
scFv: SYVLTQPPSASGTPGQRVTISCSGSSSNIGSNTVNWYQQVPGTAPKLLIYSNNQRPSGVPDRFSGSKSGASASLAISWLQSEDEADYYCAAWDDSLNGWVFGGGTKLTVLGSRGGGGSGGGGSGGGGSLEMAQMQLVQSGAEVKKPGASVKVSCKASGYTFTGYYVHWLRQAPGQGLEWMGWINPNSGGTNNAQEFQGRITMTRDTSINTAYMELSRLRSDDTAVYYCARSQWGGTYDYWGQGTLVTVSS
notes: also called ET140-188 scFv; ET140-38 scFv
B4: ET140-201 (scFv)
scFv: QPVLTQPPSASASLGASVTLTCTLSSGYSNYKVDWYQQRPGKGPRFVMRVGTGGIVGSKGDGIPDRFSVLGSGLNRYLTIKNIQEEDEGDYHCGADHGSGSNFVYVFGTGTKVTVLGSRGGGGSGGGGSGGGGSLEMAQVQLQESGPGLVKPSGTLSLTCGVSGGSISNSNWWSWVRQPPGKGLEWIGEIYHSGSTKYNPSLRSRVTISVDKSKNQFSLKLSSVTAADTAVYYCARRDNWKTPTTKIDGFDIWGQGTMVTVSS
notes: also called ET140-201 scFv; ET140-51 scFv
B5: ET140-174 (scFv)
scFv: SYELTQPPSASGTPGQRVTMSCSGTSSNIGSHSVNWYQQLPGTAPKLLIYTNNQRPSGVPDRFSGSKSGTSASLAISGLQSEDEADYYCAAWDGSLNGLVFGGGTKLTVLGSRGGGGSGGGGSGGGGSLEMAEVQLVQSGAEVKKPGESLKISCKGSGYSFTSYWIGWVRQMPGKGLEWMGIIYPGDSDTRYSPSFQGHVTISADKSISTAYLQWSSLKASDTAMYYCARYSGSFDNWGQGTLVTVSS
notes: also called ET140-174 scFv; ET140-24 scFv
B6: ET140-196 (scFv)
scFv: QAVLTQPPSASGTPGQRVTISCSGSSSNIGSYTVSWYQQLPGTAPKFLIYSNNQRPSGVPDRFSGSKSGTSASLAISGLQSEDEADYYCAAWDDSLNGYVFGTGTKVTVLGSRGGGGSGGGGSGGGGSLEMAEVQLVQSGAEVKKPGESLKISCKGSGYDFTTYWIGWVRQMPGKGLEWMGIIYPGDSDTRYSPSVRGRVTISADKSINTAYLQWSSLEASDTAMYYCARMWTFSQDGWGQGTLVTVSS
notes: also called ET140-196 scFv; ET140-46 scFv
B7: ET140-204 (scFv)
scFv: QSALTQPASVSASPGQSIAISCTGTSSDVGWYQQHPGKAPKLMIYEDSKRPSGVSNRFSGSKSGNTASLTISGLQAEDEADYYCSSNTRSSTLVFGGGTKLTVLGSRGGGGSGGGGSGGGGSLEMAEVQLVQSGAEMKKPGASLKLSCKASGYTFIDYYVYWMRQAPGQGLESMGWINPNSGGTNYAQKFQGRVTMTRDTSISTAYMELSRLRSDDTAMYYCARSQRDGYMDYWGQGTLVTVSS
notes: also called ET140-204 scFv; ET140-54 scFv
B8: ET140-172 (scFv)
scFv: QSVVTQPPSVSGAPGQRVTISCSGSSSNIGARYDVQWYQQLPGTAPKLLIFGNNNRPSGVPDRFSGSKSGTSASLAITGLQAEDEADYYCQSYDSSLSASVFGGGTKLTVLGSRGGGGSGGGGSGGGGSLEMAEVQLVQSGAEVKKPGASVKVSCKASGYTFTSYYMHWVRQAPGQGLEWMGIINPSGGSTSYAQKFQGRVTMTRDTSTSTVYMELSSLRSEDTAVYYCARSQWGGVLDYWGQGTLVTVSS
notes: also called ET140-172 scFv; ET140-22 scFv

Molecular target: T1, A647 conjugated BCMA-Fc fusion protein
Assay: flow cytometry, A647 conjugated BCMA-Fc on CAR-transduced human T cells
Procedure: Human T cells (unselected (CD4 and CD8) human T cells from a healthy donor) were transduced with retrovirus in order to express each of these BCMA-targeted CARs such that the T cells expressed these BCMA-targeted 28z CARs. The cell surface expression of BCMA-targeted CARs on human T cells was determined via binding A647 conjugated BCMA-Fc fusion protein.

**Q.** Does B1 bind?
**A.** binds

Molecular target: T2, mouse BCMA
Assay: ELISA (OD450), single point, coats human BCMA, mouse BCMA, blank

**Q.** Does B2 bind?
**A.** no binding

**Q.** Does B3 bind?
**A.** no binding

**Q.** Does B4 bind?
**A.** no binding

**Q.** Does B5 bind?
**A.** no binding

**Q.** Does B6 bind?
**A.** no binding

**Q.** Does B7 bind?
**A.** no binding

**Q.** Does B8 bind?
**A.** no binding
